Data set [1] deals with GFP-9S motif 4 LD (synthetic construct). Nature of the data set: HRP pulldown. Conditions: lysate, HRP: 50 mM Tris pH 8, 150 mM NaCl, 1 mM bME, 50 ug/ml BSA, 3 ug/ml yeast RNA, 0.5% heparin, 2 nM RNA, ITC (25 C) and FP: Tris pH 8, 200 mM KCl, 5% glycerol ….
Data set [2] deals with GFP-9S motif 4 KD (synthetic construct). Nature of the data set: HRP pulldown. Conditions: lysate, HRP: 50 mM Tris pH 8, 150 mM NaCl, 1 mM bME, 50 ug/ml BSA, 3 ug/ml yeast RNA, 0.5% heparin, 2 nM RNA, ITC (25 C) and FP: Tris pH 8, 200 mM KCl, 5% glycerol ….
Data set [3] deals with GFP-9S motif 4 ID (synthetic construct). Nature of the data set: HRP pulldown. Conditions: lysate; HRP: 50 mM Tris pH 8, 150 mM NaCl, 1 mM bME, 50 ug/ml BSA, 3 ug/ml yeast RNA, 0.5% heparin, 2 nM RNA; ITC (25 C) and FP: Tris pH 8, 200 mM KCl, 5% glycerol ….
Data set [4] concerns TRX-9P-S2 (synthetic construct). The experiment in a line: ITC. Conditions: HRP: 50 mM Tris pH 8, 150 mM NaCl, 1 mM bME, 50 ug/ml BSA, 3 ug/ml yeast RNA, 0.5% heparin, 2 nM RNA; ITC (25 C) and FP: Tris pH 8, 200 mM KCl, 5% glycerol ….
Data set [5] concerns TRX-9S-S2 (synthetic construct (Selaginella-type S motif consensus)). Nature of the data set: ITC. Conditions: HRP: 50 mM Tris pH 8, 150 mM NaCl, 1 mM bME, 50 ug/ml BSA, 3 ug/ml yeast RNA, 0.5% heparin, 2 nM RNA; ITC (25 C) and FP: Tris pH 8, 200 mM KCl, 5% glycerol ….
For data set [6], the system named is GFP-9S motif 4 TD (synthetic construct). The experiment in a line: HRP pulldown. The following applies: HRP: 50 mM Tris pH 8, 150 mM NaCl, 1 mM bME, 50 ug/ml BSA, 3 ug/ml yeast RNA, 0.5% heparin, 2 nM RNA; ITC (25 C) and FP: Tris pH 8, 200 mM KCl, 5% glycerol ….
The test system of data set [7] is TRX-9S-S2 (synthetic construct (Selaginella-type S motif consensus)). Nature of the data set: fluorescence polarization. The following applies: HRP: 50 mM Tris pH 8, 150 mM NaCl, 1 mM bME, 50 ug/ml BSA, 3 ug/ml yeast RNA, 0.5% heparin, 2 nM RNA; ITC (25 C) and FP: Tris pH 8, 200 mM KCl, 5% glycerol …. Background: Fluorescence polarisation rises when a labelled molecule tumbles more slowly, as on binding a larger partner.

Data set [8] concerns TRX-9S-E2 (synthetic construct). Nature of the data set: MST. Conditions: HRP: 50 mM Tris pH 8, 150 mM NaCl, 1 mM bME, 50 ug/ml BSA, 3 ug/ml yeast RNA, 0.5% heparin, 2 nM RNA; ITC (25 C) and FP: Tris pH 8, 200 mM KCl, 5% glycerol ….
Data set [9] deals with TRX-AviTag-9S-S2 (synthetic construct). The experiment in a line: HRP pulldown. Conditions: HRP: 50 mM Tris pH 8, 150 mM NaCl, 1 mM bME, 50 ug/ml BSA, 3 ug/ml yeast RNA, 0.5% heparin, 2 nM RNA; ITC (25 C) and FP: Tris pH 8, 200 mM KCl, 5% glycerol ….
For data set [10], the system named is TRX-9P-S2 (synthetic construct). Nature of the data set: HRP pulldown. The following applies: HRP: 50 mM Tris pH 8, 150 mM NaCl, 1 mM bME, 50 ug/ml BSA, 3 ug/ml yeast RNA, 0.5% heparin, 2 nM RNA; ITC (25 C) and FP: Tris pH 8, 200 mM KCl, 5% glycerol ….
The test system of data set [11] is TRX-9S-S2 (synthetic construct (Selaginella-type S motif consensus)). Nature of the data set: HRP pulldown. The following applies: HRP: 50 mM Tris pH 8, 150 mM NaCl, 1 mM bME, 50 ug/ml BSA, 3 ug/ml yeast RNA, 0.5% heparin, 2 nM RNA; ITC (25 C) and FP: Tris pH 8, 200 mM KCl, 5% glycerol ….
The test system of data set [12] is GFP-9S (synthetic construct). Nature of the data set: HRP pulldown. The following applies: HRP: 50 mM Tris pH 8, 150 mM NaCl, 1 mM bME, 50 ug/ml BSA, 3 ug/ml yeast RNA, 0.5% heparin, 2 nM RNA; ITC (25 C) and FP: Tris pH 8, 200 mM KCl, 5% glycerol ….
Data set [13] deals with T1, 9S-S2 PPR (synthetic construct).
T1 chain: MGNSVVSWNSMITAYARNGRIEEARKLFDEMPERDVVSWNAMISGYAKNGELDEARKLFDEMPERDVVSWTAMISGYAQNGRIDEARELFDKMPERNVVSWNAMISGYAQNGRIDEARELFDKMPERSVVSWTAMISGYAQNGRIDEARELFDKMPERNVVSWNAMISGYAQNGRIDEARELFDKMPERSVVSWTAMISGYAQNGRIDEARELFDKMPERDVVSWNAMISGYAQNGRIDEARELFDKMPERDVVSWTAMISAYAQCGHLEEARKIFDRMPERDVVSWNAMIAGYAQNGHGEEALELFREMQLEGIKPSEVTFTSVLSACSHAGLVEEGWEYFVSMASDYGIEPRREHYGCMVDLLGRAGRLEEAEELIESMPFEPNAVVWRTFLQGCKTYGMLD
The experiment in a line: high-throughput RNA pulldown on Ni-NTA beads; HRP: 50 mM Tris pH 8, 150 mM NaCl, 1 mM beta-mercaptoethanol, 50 ug/ml BSA, 3 ug/ml yeast RNA, 0.5% heparin; ITC and FP: Tris pH 8, 200 mM KCl, 5% glycerol; MST: 50 mM Tris pH 8, 200 mM NaCl, 1 mM DTT, BSA, heparin, 0.05% Tween 20. The following applies: protein: recombinant; tags: N-terminal TRX-His; label: 5' Cy5.

The target of data set [14] is T2, 9P-S2 (synthetic construct).
T2 chain: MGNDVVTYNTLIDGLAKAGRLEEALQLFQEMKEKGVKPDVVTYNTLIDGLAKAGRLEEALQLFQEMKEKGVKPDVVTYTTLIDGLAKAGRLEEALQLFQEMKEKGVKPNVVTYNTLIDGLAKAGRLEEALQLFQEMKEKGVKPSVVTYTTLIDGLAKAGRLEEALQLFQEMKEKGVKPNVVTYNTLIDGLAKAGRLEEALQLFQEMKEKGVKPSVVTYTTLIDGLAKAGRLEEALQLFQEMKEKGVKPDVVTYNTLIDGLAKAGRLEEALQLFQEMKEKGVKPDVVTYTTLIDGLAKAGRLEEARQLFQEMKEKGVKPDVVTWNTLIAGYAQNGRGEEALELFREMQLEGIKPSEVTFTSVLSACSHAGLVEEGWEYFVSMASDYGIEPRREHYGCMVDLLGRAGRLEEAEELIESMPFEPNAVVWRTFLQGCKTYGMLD
Nature of the data set: isothermal titration calorimetry; HRP: 50 mM Tris pH 8, 150 mM NaCl, 1 mM beta-mercaptoethanol, 50 ug/ml BSA, 3 ug/ml yeast RNA, 0.5% heparin; ITC and FP: Tris pH 8, 200 mM KCl, 5% glycerol; MST: 50 mM Tris pH 8, 200 mM NaCl, 1 mM DTT, BSA, heparin, 0.05% Tween 20. The following applies: protein: recombinant; tags: N-terminal TRX-His. For orientation: Isothermal titration calorimetry measures the heat released or taken up as one component is titrated into another.

The target in data set [15] is T1, 9S-S2 PPR. The data set is described as above. The following applies: protein: recombinant; tags: N-terminal TRX-His.
Data set [16] addresses T1, 9S-S2 PPR. The experiment in a line: fluorescence polarization; HRP: 50 mM Tris pH 8, 150 mM NaCl, 1 mM beta-mercaptoethanol, 50 ug/ml BSA, 3 ug/ml yeast RNA, 0.5% heparin; ITC and FP: Tris pH 8, 200 mM KCl, 5% glycerol; MST: 50 mM Tris pH 8, 200 mM NaCl, 1 mM DTT, BSA, heparin, 0.05% Tween 20. The following applies: protein: recombinant; tags: N-terminal TRX-His; label: fluorescein.

[17] abbreviates: Kd above 200 nM called unreliable.

A word on the Kd: it is the constant that tells how readily two partners part at equilibrium. AUUAUACGUGA [IR-rpoA-U]: the Kd in data set [1] is 66.3 nM; in data set [2] (setting [17]), 279 nM; in data set [3], 53.5 nM.

Regarding UUACACGUG [rpoA footprint (ITC)], the equilibrium dissociation constant (Kd) in [4] came out at 239 nM; in data set [5], 48 nM.

With AUUAGACGUGA [Cy5-rpoA-G], the dissociation constant (Kd) worked out at 183 nM in data set [1], 14 nM in data set [6], 315 nM in data set [2] (setting [17]) and 127 nM in [3].

Consider AUUAAACGUGA [IR-rpoA-A], for which the results for the Kd in [1] (setting [17]), in [2] (setting [17]) and in data set [3] were 452 nM, 409 nM and 175 nM, respectively.

In [7], AUUACACGUG [rpoA (FP)] had a Kd of 7.6 nM.

Consider AUUACACGUGA [Cy5-rpoA], for which the Kd in data set [8] turned out to be 6.8 nM; in data set [9] it was 5.3 nM; in data set [10], 68 nM; in [1] (setting [17]) it was 214 nM; in [11], 6.4 nM; in data set [12], 12 nM. The results for the Kd in [6], in data set [2] and in data set [3] were 280 nM, 189 nM and 153 nM, respectively.

Turning to CAGCAACAGAAGCCCAAGCUCAUGGA (ssRNA) [Cy5-clpP (clpP1)], the binding result in [13] was “no binding”.

Regarding UUACACGUG (ssRNA) [rpoA footprint (ITC)], the Kd in [14] stood at 239 nM; in [15], 48 nM.

In the case of AUUACACGUG (ssRNA) [rpoA (FP)], in data set [16], the Kd stood at 7.6 nM.

Values taken from PMC8809517, “Cofactor-independent RNA editing by a synthetic S-type PPR protein”.
